Tested on: double-stranded oligonucleotide (ran2)
Experiment: SPR analysis of the interaction between MipZ and DNA
Assay type: binding
Method: Figure S5. Surface plasmon resonance (SPR) analysis of the interaction betw een MipZ and DNA, Related to Figure 4.
(A) Effect of Mg2+ on the DNA-binding activity of MipZ. A double-stranded oligonucleotide (ran2, 700 RU) was immobilized on an SPR sensor chip and probed with MipZ (1 µM). The binding reactions were performed in buffer BC containing the indicated nucleotide (2 mM) and no (ATP + Mg2+) or 10 mM (no nucleotide, ADP, ATP) EDTA, respectively.
(B) DNA-binding specificity of MipZ. A double-stranded oligonucleotide (ran2, 500 RU) was immobilized on an SPR sensor chip and allowed to react with MipZ protein (1 µM) that had been preincubated with 2 mM ATP and a double-stranded oligonucleotide (ran2, 6 µM) (dsDNA), a single-stranded oligonucleotide (top strand of ran2, 6 µM) (ssDNA), an oligoribo-nucleotide (with a sequence analogous to the top strand of ran2, 6 µM) (RNA) or polyphosphate (25 µg/ml) (PP), respectively. A reaction performed in the absence of any competitor served as a control. […]
experimental conditions used (data not shown). The dissociation rate constant determined for the reaction without ParB was […]
obtained from crystals flash frozen in a solution of 95% 2 mM, sa mp le s were taken and analyzed for the amount ethanol/50 mM Tris (pH 8.5), and collected at ID23-2, of [α-32P]-GDP produced in the reaction as described ESRF (Grenoble, France). […]

B1: MipZ: P loop ATPase and cell division inhibitor of Caulobacter crescentus; hexahistidine-tagged in vitro, YFP fusion in FRAP (protein)
chain: MAETRVIVVGNEKGGAGKSTIAVHLVTALLYGGAKVAVIDLDLRQRTSARFFENRRAWLDNKKIELPEPLALNLSDNDVALAERPEEEQVAGFEAAFARAMAECDFILIDTPGGDSAITRMAHGRADLVVTPMNDSFVDFDMLGTVDPVTLELTKPSLYSLTVWEGRKQRALSGQRQAMDWVVLRNRLATTEARNRKRLEDRLNALAKRVGFRIGPGLRDRVIYRELFPFGLTIADLSPQVRPVPVSLQHLAARQELRALMHSLGLSAYSGETMLAAQ
modifications: left off: His6, end not stated, state not stated
notes: hexahistidine-tagged in vitro, YFP fusion in FRAP
B1 was tested, and the “rate constant for the dissociation of MipZ from DNA (koff)” value (MipZ 0.5 µM, 2 mM ATP, without ParB) was 0.025 s⁻¹ and the “half-time t1/2 of dissociation of MipZ from DNA” value (in vitro) was 28 s.
